From US20160116473A1 (KOREA INSTITUTE OF RADIOLOGICAL AND MEDICAL SCIENCES, published 2016)

Molecular target: T1, Signal transducer and activator of transcription 3 (STAT3) (human, UniProt P40763 2-770)
T1 construct: Endogenous protein in cell lysates (co-immunoprecipitation) or in fixed cells and tissues (PLA)
Test: co-immunoprecipitation from Hep-2 and RR-Hep-2 cell lysates, immunoblot
Protocol: Cells were lysed with nonyl phenoxypolyethoxylethanol-40 (NP-40), and the lysates were then precipitated with a negative control mouse antibody (Santa Cruz Biotechnology Inc.) or a mouse monoclonal antibody against ERp57 (Santa Cruz Biotechnology Inc.). Afterwards, immune complexes were collected using protein G-Sepharose and washed 3 times, and SDS sample buffer was added thereto. The samples were size-fractionated by electrophoresis.

T1 sequence (P40763 2-770 limits assumed): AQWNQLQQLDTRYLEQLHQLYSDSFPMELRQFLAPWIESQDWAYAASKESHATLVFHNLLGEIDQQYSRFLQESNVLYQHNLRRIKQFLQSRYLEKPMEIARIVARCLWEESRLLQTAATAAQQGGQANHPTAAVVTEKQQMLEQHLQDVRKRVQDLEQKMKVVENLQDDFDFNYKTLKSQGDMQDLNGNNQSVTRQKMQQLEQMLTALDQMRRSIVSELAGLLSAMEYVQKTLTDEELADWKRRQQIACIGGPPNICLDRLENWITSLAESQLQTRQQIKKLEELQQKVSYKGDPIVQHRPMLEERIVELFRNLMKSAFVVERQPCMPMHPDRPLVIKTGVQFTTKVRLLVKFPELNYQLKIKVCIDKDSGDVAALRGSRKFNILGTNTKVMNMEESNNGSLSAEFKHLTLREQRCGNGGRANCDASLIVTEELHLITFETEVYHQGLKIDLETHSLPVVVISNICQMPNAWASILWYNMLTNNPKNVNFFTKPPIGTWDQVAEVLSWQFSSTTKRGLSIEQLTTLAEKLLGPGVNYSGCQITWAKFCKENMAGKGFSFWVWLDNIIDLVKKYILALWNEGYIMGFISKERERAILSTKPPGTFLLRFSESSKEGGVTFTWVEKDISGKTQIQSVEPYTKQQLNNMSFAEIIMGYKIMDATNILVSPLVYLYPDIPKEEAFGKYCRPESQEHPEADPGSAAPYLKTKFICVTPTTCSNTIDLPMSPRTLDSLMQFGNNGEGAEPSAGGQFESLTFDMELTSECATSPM

B1: ERp57 (enzyme, human, UniProt P30101 25-505, looked up)
chain: SDVLELTDDNFESRISDTGSAGLMLVEFFAPWCGHCKRLAPEYEAAATRLKGIVPLAKVDCTANTNTCNKYGVSGYPTLKIFRDGEEAGAYDGPRTADGIVSHLKKQAGPASVPLRTEEEFKKFISDKDASIVGFFDDSFSEAHSEFLKAASNLRDNYRFAHTNVESLVNEYDDNGEGIILFRPSHLTNKFEDKTVAYTEQKMTSGKIKKFIQENIFGICPHMTEDNKDLIQGKDLLIAYYDVDYEKNAKGSNYWRNRVMMVAKKFLDAGHKLNFAVASRKTFSHELSDFGLESTAGEIPVVAIRTAKGEKFVMQEEFSRDGKALERFLQDYFDGNLKRYLKSEPIPESNDGPVKVVVAENFDEIVNNENKDVLIEFYAPWCGHCKNLEPKYKELGEKLSKDPNIVIAKMDATANDVPSPYEVRGFPTIYFSPANKKLNPKKYEGGRELSDFISYLQREATNPPVIQEEKPKKKKKAQEDL
notes: Endogenous protein in cell lysates (co-immunoprecipitation) or in fixed cells and tissues (PLA); also called protein disulfide isomerase family A member 3; PDIA3
**Q.** Does B1 bind?
**A.** binds
